Test results from article PMC10354202.

T1: (Ig32)2-(R3^IVVI)-(Ig32)2 polyprotein, talin R3 domain with the IVVI mutation
T1 chain: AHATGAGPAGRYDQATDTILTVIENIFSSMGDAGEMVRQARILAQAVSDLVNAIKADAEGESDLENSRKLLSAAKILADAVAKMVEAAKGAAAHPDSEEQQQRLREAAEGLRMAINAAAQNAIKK


Molecular target: T1, (Ig32)2-(R3^IVVI)-(Ig32)2 polyprotein, …
Experiment: magnetic tweezers
Conditions: chain shown with the change; for other: average unbinding time at 40 pN: parent: est. 9 s, read off a plot

other: unbinding time (tUb) at 40 pN, peak of square-root histogram [s] | other: average unbinding time at 40 pN [s] | Binder
3.4 | 18 | full-length human vinculin, wild type, P18206-2 K944A; R945A; D1013A; E1015A; E986A (protein) MPVFHTRTIESILEPVAQQISHLVIMHEEGEVDGKAIPDLTAPVAAVQAAVSNLVRVGKETVQTTEDQILKRDMPPAFIKVENACTKLVQAAQMLQSDPYSVPARDYLIDGSRGILSGTSDLLLTFDEAEVRKIIRVCKGILEYLTVAEVVETMEDLVTYTKNLGPGMTKMAKMIDERQQELTHQEHRVMLVNSMNTVKELLPVLISAMKIFVTTKNSKNQGIEEALKNRNFTVEKMSAEINEIIRVLQLTSWDEDAWASKDTEAMKRALASIDSKLNQAKGWLRDPSASPGDAGEQAIRQILDEAGKVGELCAGKERREILGTCKMLGQMTDQVADLRARGQGSSPVAMQKAQQVSQGLDVLTAKVENAARKLEAMTNSKQSIAKKIDAAQNWLADPNGGPEGEEQIRGALAEARKIAELCDDPKERDDILRSLGEISALTSKLADLRRQGKGDSPEARALAKQVATALQNLQTKTNRAVANSRPAKAAVHLEGKIEQAQRWIDNPTVDDRGVGQAAIRGLVAEGHRLANVMMGPYRQDLLAKCDRVDQLTAQLADLAARGEGESPQARALASQLQDSLKDLKARMQEAMTQEVSDVFSDTTTPIKLLAVAATAPPDAPNREEVFDERAANFENHSGKLGATAEKAAAVGTANKSTVEGIQASVKTARELTPQVVSAARILLRNPGNQAAYEHFETMKNQWIDNVEKMTGLVDEAIDTKSLLDASEEAIKKDLDKCKVAMANIQPQMLVAGATSIARRANRILLVAKREVENSEDPKFREAVKAASDELSKTISPMVMDAKAVAGNISDPGLQKSFLDSGYRILGAVAKVREAFQPQEPDFPPPPPDLEQLRLTDELAPPKPPLPEGEVPPPRPPPPEEKDEEFPEQKAGEVINQPMMMAARQLHDEARKWSSKGNDIIAAAKRMALLMAEMSRLVRGGSGTAAALIQCAKDIAKASDEVTRLAKEVAKQCTDKRIRTNLLQVCARIPTISTQLKILSTVKATMLGRTNISAEASEQATEMLVHNAQNLMQSVKETVREAEAASIKIRTDAGFTLRWVRKTPWYQ
4 | 27 | full-length human vinculin, wild type, P18206-2 K944A; R945A; D1013A; E1015A (protein) MPVFHTRTIESILEPVAQQISHLVIMHEEGEVDGKAIPDLTAPVAAVQAAVSNLVRVGKETVQTTEDQILKRDMPPAFIKVENACTKLVQAAQMLQSDPYSVPARDYLIDGSRGILSGTSDLLLTFDEAEVRKIIRVCKGILEYLTVAEVVETMEDLVTYTKNLGPGMTKMAKMIDERQQELTHQEHRVMLVNSMNTVKELLPVLISAMKIFVTTKNSKNQGIEEALKNRNFTVEKMSAEINEIIRVLQLTSWDEDAWASKDTEAMKRALASIDSKLNQAKGWLRDPSASPGDAGEQAIRQILDEAGKVGELCAGKERREILGTCKMLGQMTDQVADLRARGQGSSPVAMQKAQQVSQGLDVLTAKVENAARKLEAMTNSKQSIAKKIDAAQNWLADPNGGPEGEEQIRGALAEARKIAELCDDPKERDDILRSLGEISALTSKLADLRRQGKGDSPEARALAKQVATALQNLQTKTNRAVANSRPAKAAVHLEGKIEQAQRWIDNPTVDDRGVGQAAIRGLVAEGHRLANVMMGPYRQDLLAKCDRVDQLTAQLADLAARGEGESPQARALASQLQDSLKDLKARMQEAMTQEVSDVFSDTTTPIKLLAVAATAPPDAPNREEVFDERAANFENHSGKLGATAEKAAAVGTANKSTVEGIQASVKTARELTPQVVSAARILLRNPGNQAAYEHFETMKNQWIDNVEKMTGLVDEAIDTKSLLDASEEAIKKDLDKCKVAMANIQPQMLVAGATSIARRANRILLVAKREVENSEDPKFREAVKAASDELSKTISPMVMDAKAVAGNISDPGLQKSFLDSGYRILGAVAKVREAFQPQEPDFPPPPPDLEQLRLTDELAPPKPPLPEGEVPPPRPPPPEEKDEEFPEQKAGEVINQPMMMAARQLHDEARKWSSKGNDIIAAAKRMALLMAEMSRLVRGGSGTAAALIQCAKDIAKASDEVTRLAKEVAKQCTDKRIRTNLLQVCERIPTISTQLKILSTVKATMLGRTNISAEASEQATEMLVHNAQNLMQSVKETVREAEAASIKIRTDAGFTLRWVRKTPWYQ
